Starred links: 1 amine or outer side, 2 acyl side, 3 side chain; linkers in the order of their positions; H or OH if unused. Non-standard residues stand in square brackets, D forms with d. Groups on a side chain read outwards from the residue. Primed or numbered codes have the meaning given here. No end group written: not given here. *: point of attachment. (PEG)2″ = polyethylene glycol 2 linker unit; C18 diacid = O=C(O)CCCCCCCCCCCCCCCCC(=O)*; Dip = N[C@H](C(=O)O)C(c1ccccc1)c1ccccc1; Heptadecanoyl = CCCCCCCCCCCCCCCCC(=O)*; γGlu = O=C(O)[C@H](CCC(=O)[*:2])N[*:1]; Stearoyl = CCCCCCCCCCCCCCCCCC(=O)*; Palmitoyl = CCCCCCCCCCCCCCCC(=O)*; αMeF = C[C@](N)(Cc1ccccc1)C(=O)O; (PEG)2 = polyethylene glycol 2; PEG4 = NCCOCCOCCOCCOCCC(=O)O; Dodecyl = CCCCCCCCCCCC*; AEEA = NCCOCCOCC(=O)O; Aib = CC(C)(N)C(=O)O

We go through 14 molecules from patent US20230357348A1 (AstraZeneca / MedImmune, published 2023).

For assay [1], the target named is human GLP-1 receptor (hGLP-1R) (human, UniProt P43220 24-463). In words: cell-based or functional assay.
Assay [2] has as its target human glucagon receptor (hGCGR) (human, UniProt P47871 26-477). In words: cell-based or functional assay.

Chain of human glucagon receptor (hGCGR) (P47871 26-477): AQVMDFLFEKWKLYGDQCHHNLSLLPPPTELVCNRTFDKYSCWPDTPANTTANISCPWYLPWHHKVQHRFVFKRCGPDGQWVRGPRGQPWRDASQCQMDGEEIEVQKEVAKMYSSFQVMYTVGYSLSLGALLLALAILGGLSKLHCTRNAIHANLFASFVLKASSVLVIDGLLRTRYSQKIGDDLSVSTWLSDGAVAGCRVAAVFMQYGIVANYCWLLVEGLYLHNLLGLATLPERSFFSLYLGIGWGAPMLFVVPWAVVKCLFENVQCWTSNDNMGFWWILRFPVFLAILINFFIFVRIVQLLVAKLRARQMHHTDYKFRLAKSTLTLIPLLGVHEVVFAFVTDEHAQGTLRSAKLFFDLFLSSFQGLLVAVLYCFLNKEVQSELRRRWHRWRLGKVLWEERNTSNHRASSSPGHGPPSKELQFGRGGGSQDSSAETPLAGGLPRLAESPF

For HSQGS[αMeF]TSDVSK[Dip]LDSK([(PEG)2-(PEG)2-γGlu-γGlu-Myristyl])AAQD[αMeF]VE[Aib]IINT-NH2 [Peptide 63], the “hGLP-1R EC50 (pM)” value in assay [1] stood at 3.14 pM. In addition, the “hGluc-R EC50 (pM)” value in assay [2] is 2.49 pM.

Regarding HSQGS[αMeF]TSDVSK[Dip]LDSK([(PEG)2-γGlu-(PEG)2-γGlu-Stearoyl])AAQD[αMeF]VE[Aib]IINT-NH2 [Peptide 61], the “hGLP-1R EC50 (pM)” value in assay [1] worked out at 4.12 pM. Besides, the “hGluc-R EC50 (pM)” value in assay [2] stood at 9.55 pM.

On to HSQGS[αMeF]TSDVSK[Dip]LDSKAAQD[αMeF]VE[Aib]IINT-NH2 (not fully specified (residue 17)) [Peptide 65], for which, in assay [1], the “hGLP-1R EC50 (pM)” value was 1230 pM. In assay [2], the “hGluc-R EC50 (pM)” value came out at 2060 pM.

For HSQGS[αMeF]TSDVSK[αMeF]LDSK([(PEG)2-(PEG)2-γGlu-γGlu-Heptadecanoyl])AAQD[αMeF]VQ[Aib]IAN-NH2 [Peptide 88], the “hGLP-1R EC50 (pM)” value in assay [1] was determined as 1.04 pM. Moreover, in assay [2], the “hGluc-R EC50 (pM)” value is 6.47 pM.

B1: Peptide 12 (peptide)
peptide: H[Aib]HGS[αMeF]TSDVSK[αMeF]LDSK([AEEA-AEEA-γGlu-C18 diacid])AARDFVQ[Aib]IANT-NH2
modifications: N-terminus assumed
SMILES: CC[C@H](C)[C@H](NC(=O)C(C)(C)NC(=O)[C@H](CCC(N)=O)NC(=O)[C@@H](NC(=O)[C@H](Cc1ccccc1)NC(=O)[C@H](CC(=O)O)NC(=O)[C@H](CCCNC(=N)N)NC(=O)[C@H](C)NC(=O)[C@H](C)NC(=O)[C@H](CCCCNC(=O)COCCOCCNC(=O)COCCOCCNC(=O)CC[C@H](NC(=O)CCCCCCCCCCCCCCCCC(=O)O)C(=O)O)NC(=O)[C@H](CO)NC(=O)[C@H](CC(=O)O)NC(=O)[C@H](CC(C)C)NC(=O)[C@](C)(Cc1ccccc1)NC(=O)[C@H](CCCCN)NC(=O)[C@H](CO)NC(=O)[C@@H](NC(=O)[C@H](CC(=O)O)NC(=O)[C@H](CO)NC(=O)[C@@H](NC(=O)[C@](C)(Cc1ccccc1)NC(=O)[C@H](CO)NC(=O)CNC(=O)[C@H](Cc1c[nH]cn1)NC(=O)C(C)(C)NC(=O)[C@@H](N)Cc1c[nH]cn1)[C@@H](C)O)C(C)C)C(C)C)C(=O)N[C@@H](C)C(=O)N[C@@H](CC(N)=O)C(=O)N[C@H](C(N)=O)[C@@H](C)O
In the case of B1, in assay [1], the “hGLP-1R EC50 (pM)” value came to 14.5 pM. Besides, the “hGluc-R EC50 (pM)” value in assay [2] was 47.7 pM.

As to HSQGS[αMeF]TSDVSK[Dip]LDSK([(PEG)2-(PEG)2-γGlu-γGlu-Palmitoyl])AAQD[αMeF]VE[Aib]IINT-NH2 [Peptide 64], the “hGLP-1R EC50 (pM)” value in assay [1] is 2.57 pM. In assay [2], the “hGluc-R EC50 (pM)” value was found to be 3.06 pM.

Turning to HSQGS[αMeF]TSDVSK[αMeF]LDSK([(PEG)2-(PEG)2-γGlu-γGlu-Palmitoyl])AAQD[αMeF]VQ[Aib]IAN-NH2 [Peptide 87], the “hGLP-1R EC50 (pM)” value in assay [1] is 1.29 pM. In assay [2], the “hGluc-R EC50 (pM)” value turned out to be 8.46 pM.

For the molecule H[Aib]QGS[αMeF]TSDVSK[Dip]LDSK([(PEG)2-(PEG)2-γGlu-Palmitoyl])AAQD[αMeF]VQ[Aib]IAN-NH2 [Peptide 67], the “hGLP-1R EC50 (pM)” value in assay [1] stood at 2.43 pM. In addition, the “hGluc-R EC50 (pM)” value in assay [2] is 9.49 pM.

As for HSQGS[αMeF]TSDVSK[Dip]LDSK([(PEG)2-(PEG)2-γGlu-γGlu-Dodecyl])AAQD[αMeF]VE[Aib]IINT-NH2 [Peptide 62], the “hGLP-1R EC50 (pM)” value in assay [1] was 10.1 pM. Further, the “hGluc-R EC50 (pM)” value in assay [2] is 15.2 pM.

HSQGS[αMeF]TSDVSK[αMeF]LDSK([(PEG)2-(PEG)2-γGlu-γGlu-Palmitoyl])AAQD[αMeF]VQ[Aib]LEAGG-NH2 [Peptide 79]: the “hGLP-1R EC50 (pM)” value in assay [1] turned out to be 1.73 pM. Besides, the “hGluc-R EC50 (pM)” value in assay [2] was 10.7 pM.

As for HSQGS[αMeF]TSDVSK[αMeF]LDSKAAQD[αMeF]VQ[Aib]LEAGG-NH2 (not fully specified (residue 17)) [Peptide 80], the “hGLP-1R EC50 (pM)” value in assay [1] turned out to be 1.03 pM. In assay [2], the “hGluc-R EC50 (pM)” value turned out to be 9.18 pM.

With H[Aib]HGS[αMeF]TSDVSK[αMeF]LDSK([AEEA-AEEA-γGlu-C18 diacid])AAQDFVQ[Aib]IANT-NH2 [Peptide 11], the “hGLP-1R EC50 (pM)” value in assay [1] turned out to be 157 pM. Moreover, the “hGluc-R EC50 (pM)” value in assay [2] came to 118 pM.

B2: Peptide 72 (peptide)
peptide: H[Aib]QGS[αMeF]TSDVSK[αMeF]LDSK([PEG4-γGlu-γGlu-Palmitoyl])AAQD[αMeF]VE[Aib]LEAGG-NH2
modifications: N-terminus assumed
SMILES: CCCCCCCCCCCCCCCC(=O)N[C@@H](CCC(=O)N[C@@H](CCC(=O)NCCOCCOCCOCCOCCC(=O)NCCCC[C@H](NC(=O)[C@H](CO)NC(=O)[C@H](CC(=O)O)NC(=O)[C@H](CC(C)C)NC(=O)[C@](C)(Cc1ccccc1)NC(=O)[C@H](CCCCN)NC(=O)[C@H](CO)NC(=O)[C@@H](NC(=O)[C@H](CC(=O)O)NC(=O)[C@H](CO)NC(=O)[C@@H](NC(=O)[C@](C)(Cc1ccccc1)NC(=O)[C@H](CO)NC(=O)CNC(=O)[C@H](CCC(N)=O)NC(=O)C(C)(C)NC(=O)[C@@H](N)Cc1c[nH]cn1)[C@@H](C)O)C(C)C)C(=O)N[C@@H](C)C(=O)N[C@@H](C)C(=O)N[C@@H](CCC(N)=O)C(=O)N[C@@H](CC(=O)O)C(=O)N[C@@](C)(Cc1ccccc1)C(=O)N[C@H](C(=O)N[C@@H](CCC(=O)O)C(=O)NC(C)(C)C(=O)N[C@@H](CC(C)C)C(=O)N[C@@H](CCC(=O)O)C(=O)N[C@@H](C)C(=O)NCC(=O)NCC(N)=O)C(C)C)C(=O)O)C(=O)O
Regarding B2, the “hGLP-1R EC50 (pM)” value in assay [1] amounted to 3.42 pM. Also, in assay [2], the “hGluc-R EC50 (pM)” value stood at 73.7 pM.

Regarding HSQGS[αMeF]TSDVSK[Aib]LDSK([(PEG)2″-(PEG)2″-γGlu-γGlu-Stearyl])AAQD[αMeF]VQ[Aib]IAN-NH2 [Peptide 100], in assay [1], the “hGLP-1R EC50 (pM)” value was determined as 0.258 pM. Moreover, the “hGluc-R EC50 (pM)” value in assay [2] was 40.5 pM.
